Test system: Escherichia coli TOP10
Assay: shrunken log2 fold change of peptide-encoding DNA abundance (4.5 h post-induction vs induction); higher = less antimicrobial activity (less host growth inhibition)
Settings: time post-induction: 4.5 h; library: site-saturation at positions 5, 18, 19, 20
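Note: peptides expressed intracellularly from a pBAD plasmid library in pooled LB shake-flask culture, induced with 0.3% L-arabinose, DNA abundance read by NGS, three biological replicates, DESeq2 with apeglm shrinkage.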

Sequence | shrunken log2 fold change
RRIRHRPPRLPRPRPRPKDQPRP | -0.172
RRIRPRPPRLPRPRPRPIIMPRP | 0.195
RRIRFRPPRLPRPRPRPWPDPRP | 0.0228
RRIRARPPRLPRPRPRPVHPPRP | 0.217
RRIRNRPPRLPRPRPRPGTRPRP | 0.00131
RRIRQRPPRLPRPRPRPAAAPRP | 0.258
RRIRFRPPRLPRPRPRPISWPRP | -0.132
RRIRIRPPRLPRPRPRPENDPRP | -0.312
RRIRWRPPRLPRPRPRPEKFPRP | 0.0209
RRIRGRPPRLPRPRPRPVLPPRP | 0.383
RRIRQRPPRLPRPRPRPPPSPRP | 0.731
RRIRPRPPRLPRPRPRPCKNPRP | -0.328
RRIRGRPPRLPRPRPRPWRHPRP | -0.0287
RRIRYRPPRLPRPRPRPGWRPRP | 0.386
RRIRQRPPRLPRPRPRPKFMPRP | -0.18
RRIRIRPPRLPRPRPRPSGAPRP | 0.0148
RRIRMRPPRLPRPRPRPVMMPRP | 0.147
RRIRTRPPRLPRPRPRPSMIPRP | -0.527
RRIRLRPPRLPRPRPRPPIQPRP | 0.174
RRIRNRPPRLPRPRPRPGHEPRP | -0.265
RRIRPRPPRLPRPRPRPFDHPRP | -0.105

Sequence | shrunken log2 fold change
RRIRFRPPRLPRPRPRPNAWPRP | -0.171
RRIRTRPPRLPRPRPRPHLDPRP | -0.175
RRIRKRPPRLPRPRPRPRKNPRP | 0.876
RRIRCRPPRLPRPRPRPLAFPRP | -0.165
RRIRERPPRLPRPRPRPECRPRP | 0.0354
RRIRPRPPRLPRPRPRPWRFPRP | 0.212
RRIRFRPPRLPRPRPRPSIMPRP | -0.65
RRIRMRPPRLPRPRPRPWCIPRP | -0.315
RRIRFRPPRLPRPRPRPISTPRP | -0.24
RRIRHRPPRLPRPRPRPCIVPRP | -0.0379
RRIRWRPPRLPRPRPRPHNAPRP | -0.0847
RRIRYRPPRLPRPRPRPVSYPRP | -0.00297
RRIRHRPPRLPRPRPRPIRSPRP | -0.0062
RRIRPRPPRLPRPRPRPCAAPRP | 0.888
RRIRIRPPRLPRPRPRPDGQPRP | -0.0297
RRIRMRPPRLPRPRPRPDMNPRP | 2.25
RRIRDRPPRLPRPRPRPANYPRP | -0.148
RRIRRRPPRLPRPRPRPRLDPRP | 0.347
RRIRLRPPRLPRPRPRPKWKPRP | 0.0281
RRIRERPPRLPRPRPRPQTDPRP | -0.323
RRIRFRPPRLPRPRPRPSDWPRP | 0.0908

Sequence | shrunken log2 fold change
RRIRLRPPRLPRPRPRPFVKPRP | -0.225
RRIRTRPPRLPRPRPRPRQPPRP | 0.135
RRIRKRPPRLPRPRPRPNEMPRP | 0.0671
RRIRSRPPRLPRPRPRPSILPRP | -0.235
RRIRHRPPRLPRPRPRPECPPRP | -0.0835
RRIRSRPPRLPRPRPRPWRPPRP | 0.0563
RRIRWRPPRLPRPRPRPIHQPRP | 0.0226
RRIRTRPPRLPRPRPRPAEWPRP | 0.0396
RRIRVRPPRLPRPRPRPMMPPRP | -0.302
RRIRKRPPRLPRPRPRPFNYPRP | -0.463
RRIRPRPPRLPRPRPRPRGDPRP | 1.81
RRIRERPPRLPRPRPRPSYPPRP | -0.877
RRIRYRPPRLPRPRPRPVFYPRP | -1.05
RRIRERPPRLPRPRPRPFGEPRP | -0.122
RRIRHRPPRLPRPRPRPATVPRP | 0.00308
RRIRFRPPRLPRPRPRPTEYPRP | -0.423
RRIRPRPPRLPRPRPRPSMAPRP | -0.0637
RRIRDRPPRLPRPRPRPASVPRP | 0.0326
RRIRLRPPRLPRPRPRPEARPRP | 0.142
RRIRNRPPRLPRPRPRPYVIPRP | -0.177
RRIRIRPPRLPRPRPRPTAPPRP | 0.0608

Reference: the supplement of paper PMC9112550, “Optimization of the antimicrobial peptide Bac7 by deep mutational scanning” (BMC Biology, 2022)
